Measured values: the supplement of paper PMC10567573

B1: TMEM106C (parent)
chain: YVTTNVSLIPPRSEQLVNFTGKAE

Variants of: B1
Assay: protein stability index of a GFP-peptide fusion (GPS, HEK-293T) (PSI 1-6); higher = more stable
Details: c terminus: a fixed tail appended
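Also: lentivirally expressed fusions sorted by FACS into six bins by GFP to DsRed ratio, PSI derived from sequencing read proportions per bin multiplied by bin number.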

Protein stability index: each site, then its substitutions
Q15: E 2.07, D 2.08, L 2.69, K 1.43, W 1.86, N 1.55, G 2.37, Y 2.69
L16: P 2.55, S 1.91, N 1.66, G 1.81
P11: N 2.37, W 3.67, Q 2.12, A 1.6, F 3.09, S 2.65, K 2.01, G 2.51
L8: W 2.1, P 1.75, S 2.26, E 2.61, D 2.44, H 2.16, N 1.98, Q 1.53
P10: M 2.82, E 1.66, N 2.78, I 2.65, S 1.82, G 3.2
T4: A 1.71, Q 2.54, D 2.03, S 1.86, Y 2.24
S13: Q 1.72, F 2.56, Y 2.2, I 1.62, A 2.22
R12: Q 2.1, W 2.19, D 1.92, F 2.75, K 1.9, Y 2.39, V 2.08, P 1.86
E24: T 2.75, M 2.05, L 2.08, G 1.64, C 2.32, H 1.49
I9: V 1.51, G 1.6, T 2.43, E 2.25, N 2.17
N18: Q 2.07, F 2.28, D 3.25
Y1: Q 3.17, W 2.15, C 2.4, D 3.69, P 3.49, G 4, I 2.46, E 3.54, M 3.08
E14: S 1.79, H 1.92, N 1.8, D 1.46, T 2.79, P 2.18, M 2.26, V 2, K 2.16
V17: D 2.2, A 1.84, W 3.01, I 2.24, R 1.41, S 1.55, E 2.24, Q 3.85, C 2.19, P 2.31, L 2.3, M 2.04
V6: M 1.75, Q 1.68, L 2.06, D 2.37, P 2, E 2.36, C 1.82, F 3.64, W 2.57, T 2.02
N5: H 1.66, F 2.64, L 2.32, R 2.17, P 2.67, C 2.28, W 3.52, D 1.96
G21: H 2.1, R 2.32
F19: N 2, P 2.03, D 2.01, G 1.39, L 1.96, Q 2.54, Y 1.9, C 2.06
A23: P 1.77, D 2, T 1.8, H 2.47, S 1.54
T20: D 1.95, R 2.19, L 1.99, H 1.86, F 2.31, Y 2.86, G 2.13
S7: G 2.36, M 1.57, R 2.13, K 1.36, N 2.18, E 2.13, L 2.45
V2: Y 3.22, A 2.81, W 2.66, E 4.58, S 3.79
K22: Y 1.61, V 2.81, D 2.08, T 2.14, G 1.89, W 3.19, R 1.8, H 1.96, P 1.76, E 1.78
T3: I 2.12, K 2.18, Y 2.45, N 1.82, P 3.42, S 1.98, A 2.75, M 1.46, F 2.58
